Reference: US20050079613A1, “Downregulation of cell surface glycoproteins by a family of human ubiquitin ligases” (Oregon Health & Science University, priority 2002, published 2005)
“Also recorded” adds a separate entry of the source.

What was measured:
transferrin receptor = assay: Surface expression of transferrin receptor on transfected HeLa cells, flow cytometry; type: cell-based, human; conditions: HeLa cells transfected with MARCH plasmid and GFP, 24 h post-transfection
Description: (§1) Flow cytometry. Cells were removed from tissue culture dishes with 0.05% Trypsin-EDTA (Invitrogen), washed with ice-cold PBS, and incubated with appropriate antibody for 30 minutes at 4° C. The cells were washed with ice-cold PBS and either resuspended in ice-cold PBS or incubated with PE-conjugated anti-mouse secondary antibody (DAKO) and washed again before analysis with a BD Biosciences (San Jose, Calif.) FACScalibur flow cytometer.
Cells were transfected with appropriate plasmids as well as GFP to track transfection efficiency. […]
The ability to downregulate MHC I is common to KSHV-K3, KSHV-K5, MHV68-K3 and MV-M153R (Coscoy and Ganem, 2000, supra; Guerin et al., 2002, supra; Ishido et al., 2000b supra; Stevenson et al., 2000, supra). […] Since only low copy numbers were detected in HeLa cells for transcripts corresponding to each of the MARCH-proteins (FIG. 7C, and data not shown), HeLa cells were transfected with expression plasmids for MARCH-I, II, III, IV, V and VIII. Surface expression of selected glycoproteins was monitored upon transfection. […] Surface expression of the respective markers was analyzed by flow cytometry. […]

HLA-A2.1 = assay: Surface expression of co-transfected HLA-A2.1 constructs on HeLa cells, flow cytometry; type: cell-based, human
Description: as §1
(§2) The ability to downregulate MHC I is common to KSHV-K3, KSHV-K5, MHV68-K3 and MV-M153R (Coscoy and Ganem, 2000, supra; Guerin et al., 2002, supra; Ishido et al., 2000b supra; Stevenson et al., 2000, supra). Additional substrates are ICAM-1 and B7.2 (but not B7.1) for KSHV-K5, as well as CD95 and CD4 for M153R (Coscoy and Ganem, 2001, supra; Guerin et al., 2002, supra; Ishido et al., 2000a, supra; Mansouri et al., 2003, supra). Since only low copy numbers were detected in HeLa cells for transcripts corresponding to each of the MARCH-proteins (FIG. 7C, and data not shown), HeLa cells were transfected with expression plasmids for MARCH-I, II, III, IV, V and VIII. Surface expression of selected glycoproteins was monitored upon transfection. The following known substrates for viral K3-family members were tested: Fas (CD95) and HLA class I (MHC I), both of which are endogenously expressed in HeLa cells, as well as transfected HLA-A2.1 or CD4. […] Surface expression of the respective markers was analyzed by flow cytometry. GFP was used to identify transfected cells.
The most likely targets for ubiquitination on transmembrane glycoproteins are lysines in the cytoplasmic tail. To examine the role of lysines for MHC I and CD4 downregulation by MARCH-IV, a panel of constructs derived from the human MHC I molecule HLA-A2.1 and a lysine-deleted version of CD4 (Mansouri et al., 2003, supra) were used. In addition to MARCH-IV, MARCH-VIII was included in this analysis since it reduced HLA-A2.1 surface expression (FIG. 10A). […] To rule out the possibility that these mutations changed the target molecules in such a way that they are no longer recognized by MARCH-IV or VIII, a lysine residue into a HA-tag at the carboxyterminal end of HLA-A2.1 was introduced.

HLA class I (MHC I) = assay: Surface expression of endogenous MHC I on transfected HeLa cells, flow cytometry; type: cell-based, human; conditions: HeLa cells transfected with MARCH plasmid and GFP, 24 h post-transfection
Description: as §1, §2
With regards to whether MHC I downregulation by MARCH-IV was only observed at very high expression levels, since the viral immune evasion genes seem to be dedicated to MHC I downregulation, MHC I expression was compared at different expression levels of MARCH-IV or KSHV-K5 by taking advantage of the tetracycline-regulatable system to partially express either protein (Gossen, M. and H. Bujard, Proc. Natl. Acad. Sci. USA 89:5547-5551, 1992). Tet-off HeLa cells were transfected with either MARCH-IV or with KSHV-K5 in the presence of increasing amounts of tetracycline to shut off transcription. […]

[1] = system: Fas (CD95), MHC I, HLA-A2.1, CD4, transferrin receptor, B7.1; assay: Surface glycoprotein panel on transfected HeLa cells, flow cytometry; type: cell-based, human; conditions: HeLa cells transfected with MARCH plasmid
Description: as §1
The ability to downregulate MHC I is common to KSHV-K3, KSHV-K5, MHV68-K3 and MV-M153R (Coscoy and Ganem, 2000, supra; Guerin et al., 2002, supra; Ishido et al., 2000b supra; Stevenson et al., 2000, supra). Additional substrates are ICAM-1 and B7.2 (but not B7.1) for KSHV-K5, as well as CD95 and CD4 for M153R (Coscoy and Ganem, 2001, supra; Guerin et al., 2002, supra; Ishido et al., 2000a, supra; Mansouri et al., 2003, supra). Since only low copy numbers were detected in HeLa cells for transcripts corresponding to each of the MARCH-proteins (FIG. 7C, and data not shown), HeLa cells were transfected with expression plasmids for MARCH-I, II, III, IV, V and VIII. Surface expression of selected glycoproteins was monitored upon transfection. […] Surface expression of the respective markers was analyzed by flow cytometry. […]

ubiquitin = assay: In vitro ubiquitination assay with GST-fused RING-CH (PHD) domains, E1, E2 panel, anti-ubiquitin immunoblot; type: biochemical; conditions: for ubiquitin ligase activity with UbCH5a: E2 = UbCH5a; for ubiquitin ligase activity with MmUbc6: E2 = murine MmUbc6
Description: Ubiquitination assay. UbCH2 and UbCH3 were obtained from Boston Biochem. (His)6-UbCH5a and GST fusion proteins were expressed in BL21-DE3 cells (Stratagene) and BL21 cells (Amersham), respectively, and purified as previously described (Boutell, C., S. Sadis and R. D. Everett, J. Virol. 76:841-850, 2002; Tiwari, S. and A. M. Weissman, J. Biol. Chem. 276:16193-16200, 2001). Purified E3 proteins were stored at 4° C., and E2 proteins were stored at −80° C. In vitro reaction mixtures (20 μl total) included: 50 nM rabbit E1 (Boston Biochem), 28 μM Ubiquitin, 5 mM ATP, 50 mM Tris-HCl pH 7.5, 50 mM NaCl, and 2 mM DTT. E2 enzymes were used at concentrations varying from 0.1 to 2.3 μM, and E3 concentrations ranged from 3 to 30 μM. After 90 minutes of incubation at 30° C., reactions were stopped by boiling in SDS sample buffer. Samples were electrophoresed through 12% polyacrylamide SDS gels and blotted using anti-ubiquitin mouse antibody, P4D1 (Santa Cruz Biotech).
In vitro reaction mixtures (20 μl total) included: 50 nM rabbit E1 (Boston Biochem), 28 μM Ubiquitin, 10 mM ATP, 50 mM Tris-HCl pH 7.5, 50 mM NaCl, and 2 mM DTT. E2 enzymes were used at concentrations varying from 0.7 to 2.3 μM, and E3 concentrations ranged from 3 to 25 μM. After 90 minutes of incubation at 30° C., reactions were stopped by addition of 4×reducing sample buffer. Samples were electrophoresed through 12% SDS gels and blotted using anti-ubiquitin mouse antibody (Santa Cruz Biotech).
To examine if the RING-CH domains of MARCH-I and MARCH-II would act as ubiquitin ligases in vitro, DNA fragments encoding the amino-terminal RING-CH-domain of both proteins were fused to Glutathione-S-transferase. The resulting constructs were sequence confirmed and expression of GST-MARCH protein verified by immunoblot. The GST-fusion protein was expressed and purified from E. coli cultures using Glutathione-columns. The ICP0-RING-domain was also purified, in parallel with the MARCH-I and MARCH-II constructs. A panel of E2 enzymes was either purchased from commercial sources or purified either by nickel-chelate chromatography or on glutathione columns. All E2-enzymes formed mercapto-ethanol-sensisitve complexes with ubiquitin thus showing ubiquitin conjugating activity. Purified ubiquitin and E1 was obtained from commercial sources.
To examine if the RING-CH domains of MARCH proteins act as ubiquitin ligases in vitro, a DNA fragment encoding the amino-terminal RING-CH-domains of MARCH-I, II, IV and VIII were fused to Glutathione-S-transferase (GST) for bacterial expression. The GST-fusion proteins were purified from E. coli cultures using Glutathione-sepharose-columns. Approximately thirty E2 proteins are found in the human genome compared to only one E1 enzyme (Pickart, 2001, supra). […] The specificity and selectivity of E3s with respect to E2s, however, is not well characterized. To cover a spectrum of E2s, a panel of E2 enzymes (Mansouri et al., 2003, supra) was acquired. The various E2 enzymes were incubated with or without the RING-CH-GST fusions in the presence of ubiquitin, ATP, E1. The formation of multiubiquitin-adducts was examined by immunoblotting with antibodies against ubiquitin.

B1: MARCH-VIII: human membrane-associated RING-CH ubiquitin ligase, SEQ ID NOS:53 and 61 (protein, listed as Homo sapiens)
chain: MSMPLHQISAIPSQDAISARVYRSKTKEKEREEQNEKTLGHFMSHSSNISKAGSPPSASAPAPVSSFSRTSITPSSQDICRICHCEGDDESPLITPCHCTGSLHFVHQACLQQWIKSSDTRCCELCKYEFIMETKLKPLRKWEKLQMTSSERRKIMCSVTFHVIAITCVVWSLYVLIDRTAEEIKQGQATGILEWPFWTKLVVVAIGFTGGLLFMYVQCKVYVQLWKRLKAYNRVIYVQNCPETSKKNIFEKSPLTEPNFENKHGHGICHSDTNSSCCTEPEDTGAEIIHV
- surface expression of transferrin receptor (TfR) (transferrin receptor): almost complete elimination; also recorded: down regulated
- downregulation of HLA-A2.1 with a lysine re-introduced into the C-terminal HA-tag (HLA-A2.1; HeLa cells): restored downregulation
- surface expression of transfected HLA-A2.1 (HLA-A2.1; HeLa cells co-transfected with HLA-A2.1 and MARCH plasmid): reduced
- downregulation of HLA-A2.1 with lysines removed from the tail (HLA-A2.1; HeLa cells, lysine-less HLA-A2.1 construct): resistant
- surface expression of MHC I (HLA class I (MHC I)): reduced the surface expression of MHC I; also recorded: down regulated

B2: full-length MARCH-IV: MARCH-IV full length, which contains an N-terminal extension of 63 amino acids (protein)
chain: WYCYGLCAPAPQMLRHQGLLKCRCRMLFNDLKVFLLRRPPQAPLPMHGDPQPPGLAANNTLPALGAGGWAGWRGPREVVGREPPPVPPPPPLPPSSVEDDWGGPATEPPASLLSSASSDDFCKEKTEDRYSLGSSLDSGMRTPLCRICFQGPEQGELLSPCRCDGSVKCTHQPCLIKWISERGCWSCELCYYKYHVIAISTKNPLQWQAISLTVIEKVQVAAAILGSLFLIASISWLIWSTFSPSARWQRQDLLFQICYGMYGFMDVVCIGLIIHEGPSVYRIFKRWQAVNQQWKVLNYDKTKDLEDQKAGGRTNPRTSSSTQANIPSSEEETAGTPAPEQGPAQAAGHPSGPLSHHHCAYTILHILSHLRPHEQRSPPGSSRELVMRVTTV
- surface expression of MHC I (HLA class I (MHC I)): downregulates MHC I

B3: MARCH-III: human membrane-associated RING-CH ubiquitin ligase, SEQ ID NOS:43 and 56 (protein, listed as Homo sapiens)
chain: MTTSRCSHLPEVLPDCTSSAAPVVKTVEDCGSLVNGQPQYVMQVSAKDGQLLSTVVRTLATQSPFNDRPMCRICHEGSSQEDLLSPCECTGTLGTIHRSCLEHWLSSSNTSYCELCHFRFAVERKPRPLVEWLRNPGPQHEKRTLFGDMVCFLFITPLATISGWLCLRGAVDHLHFSSRLEAVGLIALTVALFTIYLFWTLVSFRYHCRLYNEWRRTNQRVILLIPKSVNVPSNQPSLLGLHSVKRNSKETVV
- reduction in surface levels of any of the glycoproteins of the panel [1]: No reduction in surface levels

B4: ICPO: purified RING domain (amino acids 1-241) of herpes simplex ICP0 as GST fusion, positive control (protein)
chain: MEPRPGASTRRPEGRPQREPAPDVWVFPCDRDLPDSSDSEAETEVGGRGDADHHDDDSASEADSTDTELFETGLLGPQGVDGGAVSGGSPPREEDPGSCGGAPPREDGGSDEGDVCAVCTDEIAPHLRCDTFPCMHRFCIPCMKTWMQLRNTCPLCNAKLVYLIVGVTPSGSFSTIPIVNDPQTRMEAEEAVRAGTAVDFIWTGNQRFAPRYLTLGGHTVRALSPTHPEPTTDEDDDDLDD
modifications: left off: a dimerising Fc or GST
notes: purified RING domain (amino acids 1-241) of herpes simplex ICP0 as GST fusion, positive control
- ubiquitin ligase activity with UbCH5a (ubiquitin): promoted the formation of high-molecular weight complexes
- ubiquitin ligase activity with MmUbc6 (ubiquitin): some activity

B5: MARCH-I: human membrane-associated RING-CH transmembrane ubiquitin ligase, SEQ ID NOS:39 and 54; expressed by transfection or as GST-RING-CH domain (protein, listed as Homo sapiens)
chain: MTSSHVCCNFLNMWKKSKISTMYYLNQDAKLSNLFLQASSPTTGTAPRSQSRLSVCPSTQDICRICHCEGDEESPLITPCRCTGTLRFVHQSCLHQWIKSSDTRCCELCKYDFIMETKLKPLRKWEKLQMTTSERRKIFCSVTFHVIAITCVVWSLYVLIDRTAEEIKQGNDNGVLEWPFWTKLVVVAIGFTGGLVFMYVQCKVYVQLWRRLKAYNRVIFVQNCPDTAKKLEKNFSCNVNTDIKDAVVVPVPQTGANSLPSAEGGPPEVVSV
- surface expression of transferrin receptor (TfR) (transferrin receptor): reduced the surface levels of transferring receptor; also recorded: Some reduction; also recorded: strong downregulation
- ubiquitin ligase activity with UbCH5a (ubiquitin): more active
- ubiquitin ligase activity with MmUbc6 (ubiquitin): only active with MmUbc6
- formation of high molecular weight ubiquitinated complexes with the E2 enzymes tested (ubiquitin; GST-RING-CH fusion, E2 panel overall): less active with most E2 enzymes tested
- surface expression of MHC I (HLA class I (MHC I)): no effect
- surface expression of MHC I (HLA class I (MHC I); listed as MARCH I): No significant MHC I downregulation
